Results: US20240287161A1 (NATIONAL UNIVERSITY CORPORATION TOTTORI UNIVERSITY, published 2024)

Assays:
[1] = molecular target: T1, HCoV-229E trimeric S protein (amino acids 12-1109) with T4 foldon, histidine tag and strep-tag (HCoV-229E, UniProt P15423 12-1112); assay: ELISA on coated S-trimeric antigen, anti-human IgG-HRP [Human IgG3, NT-193]
T1 chain: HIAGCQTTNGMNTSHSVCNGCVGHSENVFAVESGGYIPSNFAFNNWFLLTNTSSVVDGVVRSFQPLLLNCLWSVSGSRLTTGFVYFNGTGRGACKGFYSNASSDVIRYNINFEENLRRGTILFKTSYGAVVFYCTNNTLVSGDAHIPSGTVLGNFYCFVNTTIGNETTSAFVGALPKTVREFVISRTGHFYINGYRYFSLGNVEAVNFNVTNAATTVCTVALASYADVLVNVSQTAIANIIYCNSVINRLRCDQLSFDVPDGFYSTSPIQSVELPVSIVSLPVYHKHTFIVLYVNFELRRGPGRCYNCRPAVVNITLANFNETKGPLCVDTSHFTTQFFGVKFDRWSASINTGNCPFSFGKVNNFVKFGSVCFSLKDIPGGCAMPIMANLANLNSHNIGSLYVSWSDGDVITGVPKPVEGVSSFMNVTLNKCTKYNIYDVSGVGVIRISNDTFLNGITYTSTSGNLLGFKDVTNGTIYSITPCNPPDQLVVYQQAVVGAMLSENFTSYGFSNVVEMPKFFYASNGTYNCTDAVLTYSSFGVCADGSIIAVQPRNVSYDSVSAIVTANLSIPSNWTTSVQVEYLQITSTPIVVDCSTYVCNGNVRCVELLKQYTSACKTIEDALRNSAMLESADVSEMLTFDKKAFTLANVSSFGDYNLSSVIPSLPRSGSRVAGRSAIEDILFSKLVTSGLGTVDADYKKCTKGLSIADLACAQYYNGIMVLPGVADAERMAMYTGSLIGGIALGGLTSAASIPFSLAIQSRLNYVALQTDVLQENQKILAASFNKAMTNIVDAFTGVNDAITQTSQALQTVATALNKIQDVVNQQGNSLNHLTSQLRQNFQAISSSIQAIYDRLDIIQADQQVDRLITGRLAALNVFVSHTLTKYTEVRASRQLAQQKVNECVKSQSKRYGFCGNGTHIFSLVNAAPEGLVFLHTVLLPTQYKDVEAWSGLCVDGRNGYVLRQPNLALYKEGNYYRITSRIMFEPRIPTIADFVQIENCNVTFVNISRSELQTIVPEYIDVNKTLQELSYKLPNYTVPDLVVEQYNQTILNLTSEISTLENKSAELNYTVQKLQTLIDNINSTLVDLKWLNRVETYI

[2] = molecular target: T2, HCoV-NL63 trimeric S protein (amino acids 22-1293) with T4 foldon, histidine tag and strep-tag (HCoV-NL63, UniProt Q6Q1S2 23-1293); assay: as above
T2 sequence: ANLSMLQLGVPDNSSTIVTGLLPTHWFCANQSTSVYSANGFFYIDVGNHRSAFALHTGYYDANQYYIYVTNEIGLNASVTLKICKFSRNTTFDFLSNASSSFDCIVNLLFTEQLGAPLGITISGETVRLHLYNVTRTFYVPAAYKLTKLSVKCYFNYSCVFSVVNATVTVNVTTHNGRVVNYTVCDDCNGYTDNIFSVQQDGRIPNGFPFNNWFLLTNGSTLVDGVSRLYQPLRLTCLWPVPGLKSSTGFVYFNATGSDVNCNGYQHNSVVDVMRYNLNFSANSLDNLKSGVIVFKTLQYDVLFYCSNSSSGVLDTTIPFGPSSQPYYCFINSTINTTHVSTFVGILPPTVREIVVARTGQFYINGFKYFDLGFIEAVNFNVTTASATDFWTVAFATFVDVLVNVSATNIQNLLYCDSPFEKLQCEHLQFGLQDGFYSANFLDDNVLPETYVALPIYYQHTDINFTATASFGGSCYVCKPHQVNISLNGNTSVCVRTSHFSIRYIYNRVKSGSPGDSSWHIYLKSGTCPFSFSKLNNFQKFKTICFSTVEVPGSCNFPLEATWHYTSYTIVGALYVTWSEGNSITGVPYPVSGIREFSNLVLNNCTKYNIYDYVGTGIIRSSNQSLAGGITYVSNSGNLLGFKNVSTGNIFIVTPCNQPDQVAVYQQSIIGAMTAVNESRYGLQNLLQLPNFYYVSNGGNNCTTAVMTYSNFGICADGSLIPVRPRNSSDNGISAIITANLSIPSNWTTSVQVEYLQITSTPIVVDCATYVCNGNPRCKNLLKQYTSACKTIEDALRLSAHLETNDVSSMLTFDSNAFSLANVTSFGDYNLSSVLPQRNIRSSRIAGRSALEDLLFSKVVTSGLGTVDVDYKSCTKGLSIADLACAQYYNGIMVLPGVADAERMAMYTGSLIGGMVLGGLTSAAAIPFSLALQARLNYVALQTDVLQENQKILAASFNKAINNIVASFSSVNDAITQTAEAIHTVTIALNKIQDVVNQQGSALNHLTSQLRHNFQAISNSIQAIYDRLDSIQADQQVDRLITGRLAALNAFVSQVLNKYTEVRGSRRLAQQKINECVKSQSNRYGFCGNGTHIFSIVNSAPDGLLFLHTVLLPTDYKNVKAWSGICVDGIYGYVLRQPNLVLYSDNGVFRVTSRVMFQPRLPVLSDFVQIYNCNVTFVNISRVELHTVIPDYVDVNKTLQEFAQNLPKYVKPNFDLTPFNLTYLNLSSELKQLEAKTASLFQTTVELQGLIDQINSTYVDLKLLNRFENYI

B1: NT-193, human IgG3 subclass (antibody, V domains shown)
VH: EVQLQQWGAGLLKPSETLSLTCAVYGGSFSGYYWSWIRQPPGKGLEWIGEINHSGSTNYNPSLKSRVTISVDTSKNQFSLKLSSVTAADTAVYYCARGWDLDYYYGMDVWGQGTTVTVSS
VL: DIRMTQSPSAMSASVGDRVTVTCRASQGIGNYLAWFQLKPGKVPKRLIYAASSLQSGVPARFSGGGSGTEFTLTISSLQPEDFATYYCLQHGFLPWTFGQGTKLEIK
[1]
  binding result: no binding (tested: 1000 ng/ml)
[2]
  binding result: no binding (tested: 1000 ng/ml)
